Data taken from PMC6683731 (The Journal of Cell Biology, 2019).
Where two headings read alike, the source gives them in different places.

How the values were obtained:
Assay in all cases: pull-down
His6-SET (full length) [1] = target: T1, His6-SET (full length) (human, UniProt Q01105 1-290)
[2] = target: T2, cohesin subcomplex containing SA2 (residues 80–1060) and Scc1 (residues 281–420) (UniProt Q8N3U4 80-1060; O60216 281-420)
T2 sequence (looked up) 1: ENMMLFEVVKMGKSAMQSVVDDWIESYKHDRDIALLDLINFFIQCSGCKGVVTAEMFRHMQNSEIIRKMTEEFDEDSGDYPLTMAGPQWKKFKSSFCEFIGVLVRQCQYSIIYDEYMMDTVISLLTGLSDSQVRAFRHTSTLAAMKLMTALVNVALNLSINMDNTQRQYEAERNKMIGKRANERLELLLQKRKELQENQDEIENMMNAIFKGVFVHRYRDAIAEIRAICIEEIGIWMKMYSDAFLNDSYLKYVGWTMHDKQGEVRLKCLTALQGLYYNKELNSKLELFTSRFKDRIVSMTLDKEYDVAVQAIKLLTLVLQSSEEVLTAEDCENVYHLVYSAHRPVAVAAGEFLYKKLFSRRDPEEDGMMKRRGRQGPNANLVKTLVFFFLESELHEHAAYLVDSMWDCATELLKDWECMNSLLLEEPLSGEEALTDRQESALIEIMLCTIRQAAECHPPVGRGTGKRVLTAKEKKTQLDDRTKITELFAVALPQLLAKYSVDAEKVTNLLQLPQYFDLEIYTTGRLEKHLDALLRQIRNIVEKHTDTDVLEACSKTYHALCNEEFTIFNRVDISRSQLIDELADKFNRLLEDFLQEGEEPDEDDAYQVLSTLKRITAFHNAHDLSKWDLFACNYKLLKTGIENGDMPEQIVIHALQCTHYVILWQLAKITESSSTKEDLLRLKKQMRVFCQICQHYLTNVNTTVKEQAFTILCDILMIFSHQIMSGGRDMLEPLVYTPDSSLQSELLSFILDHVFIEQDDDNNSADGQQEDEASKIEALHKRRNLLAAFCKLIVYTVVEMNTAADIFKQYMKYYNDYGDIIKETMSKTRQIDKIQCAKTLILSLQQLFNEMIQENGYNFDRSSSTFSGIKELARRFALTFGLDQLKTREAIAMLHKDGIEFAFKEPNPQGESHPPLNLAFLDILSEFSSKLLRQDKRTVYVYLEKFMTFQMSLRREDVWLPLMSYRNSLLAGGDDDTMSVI
T2 sequence (looked up) 2: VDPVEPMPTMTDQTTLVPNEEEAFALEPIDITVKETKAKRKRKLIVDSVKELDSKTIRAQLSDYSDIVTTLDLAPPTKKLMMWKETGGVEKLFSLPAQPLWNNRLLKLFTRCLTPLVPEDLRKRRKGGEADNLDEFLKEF

His6-SET (full length) [3] = target: T1, His6-SET (full length); remark: listed apart in the source
[4] = target: T2, cohesin subcomplex containing SA2 …; remark: listed apart in the source

T1 sequence (Q01105 whole entry, the tested form may be a part): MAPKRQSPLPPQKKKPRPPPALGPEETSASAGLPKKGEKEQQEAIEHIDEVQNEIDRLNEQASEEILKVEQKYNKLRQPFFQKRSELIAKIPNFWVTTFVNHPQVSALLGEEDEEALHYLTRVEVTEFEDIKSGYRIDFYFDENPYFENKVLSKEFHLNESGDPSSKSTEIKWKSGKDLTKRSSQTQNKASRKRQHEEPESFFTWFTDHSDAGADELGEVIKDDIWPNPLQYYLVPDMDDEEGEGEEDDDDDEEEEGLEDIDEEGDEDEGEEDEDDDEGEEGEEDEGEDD

B1: GST-Sgo1 fragment 115–353 (domain or fragment, human, UniProt Q5FBB7 115-353, looked up)
chain: QEICSSGMDPNSDDSSRNLFVKDLPQIPLEETELPGQGESFQIEDQIPTIPQDTLGVDFDSGEAKSTDNVLPRTVSVRSSLKKHCNSICQFDSLDDFETSHLAGKSFEFERVGFLDPLVNMHIPENVQHNACQWSKDQVNLSPKLIQPGTFTKTKEDILESKSEQTKSKQRDTQERKREEKRKANRRKSKRMSKYKENKSENKKTVPQKKMHKSVSSNDAYNFNLEEGVHLTPFRQKVS
Q: Does B1 bind (His6-SET (full length) [1])?
A: Result: binds

B2: GST-Sgo1 fragment 200–353 (domain or fragment, human, UniProt Q5FBB7 200-353, looked up)
chain: NSICQFDSLDDFETSHLAGKSFEFERVGFLDPLVNMHIPENVQHNACQWSKDQVNLSPKLIQPGTFTKTKEDILESKSEQTKSKQRDTQERKREEKRKANRRKSKRMSKYKENKSENKKTVPQKKMHKSVSSNDAYNFNLEEGVHLTPFRQKVS
Q: Does B2 bind (His6-SET (full length) [1])?
A: Result: binds

B3: GST-Sgo1 fragment 280–353 (domain or fragment, human, UniProt Q5FBB7 280-353, looked up)
chain: TKSKQRDTQERKREEKRKANRRKSKRMSKYKENKSENKKTVPQKKMHKSVSSNDAYNFNLEEGVHLTPFRQKVS
Q: Does B3 bind (His6-SET (full length) [1])?
A: Result: binds

B4: GST-Sgo1 WT (241–387) (domain or fragment, human, UniProt Q5FBB7 241-387, looked up)
chain: VQHNACQWSKDQVNLSPKLIQPGTFTKTKEDILESKSEQTKSKQRDTQERKREEKRKANRRKSKRMSKYKENKSENKKTVPQKKMHKSVSSNDAYNFNLEEGVHLTPFRQKVSNDSNREENNESEVSLCESSGSGDDSDDLYLPTCK
Q: Does B4 bind (His6-SET (full length) [1])?
A: Result: binds

Q: Does B4 bind [2]?
A: Result: binds

B5: GST-Sgo1 ΔSET (241–387 depleted of 281–310) (domain or fragment, human, UniProt Q5FBB7 241-387, looked up)
chain: VQHNACQWSKDQVNLSPKLIQPGTFTKTKEDILESKSEQTENKSENKKTVPQKKMHKSVSSNDAYNFNLEEGVHLTPFRQKVSNDSNREENNESEVSLCESSGSGDDSDDLYLPTCK
Q: Does B5 bind [2]?
A: Result: binds

B6: GST-Sgo1 ΔCohesin (241–387 depleted of 313–353) (domain or fragment, human, UniProt Q5FBB7 241-387, looked up)
chain: VQHNACQWSKDQVNLSPKLIQPGTFTKTKEDILESKSEQTKSKQRDTQERKREEKRKANRRKSKRMSKYKENNDSNREENNESEVSLCESSGSGDDSDDLYLPTCK
Q: Does B6 bind (His6-SET (full length) [1])?
A: Result: binds

B7: GST-Sgo1 (241–387), Cdk1-phosphorylated (domain or fragment, human, UniProt Q5FBB7 241-387, looked up)
chain: B4 chain
modifications: phospho-Thr346 (Cdk1/cyclin B1; detected with antibody against Sgo1 pT346; how much was phosphorylated could not be measured)
Q: Which results are given for B7?
A: binding result (His6-SET (full length) [3]): binds; binding result [4]: binds
